# B1: Aβ(32–37) fragment IGLMVG with a cysteine residue at the C-terminal (peptide)
# chain: IGLMVGC
# modifications: C-terminal cysteine coupled to the maleimide-activated microplate
# notes: amyloid-β residues 32-37; numbers count on: the Aβ peptide; cysteine residue at the C-terminal, told in words, for immobilisation; source: synthetic peptide (Fmoc solid phase peptide synthesis)
# B2: Aβ(16–21) fragment KLVFFA with a cysteine residue at the C-terminal (peptide)
# chain: KLVFFAC
# modifications: C-terminal cysteine coupled to the maleimide-activated microplate
# notes: amyloid-β residues 16-21; numbers count on: the Aβ peptide; cysteine residue at the C-terminal, told in words, for immobilisation; source: synthetic peptide (Fmoc solid phase peptide synthesis)
# Target: T1, Flamma 552-conjugated Aβ(1–42) (Flamma 552 dye conjugated (position not given))
# T1 construct: numbers count on: the Aβ peptide; also called Flamma 552-labeled Aβ(1–42); monomeric Aβ(1–42) labeled with fluorescent dye Flamma 552
# Experiment: peptide or protein array; Aβ hexapeptides and full-length Aβ(1–42), each with a C-terminal cysteine, immobilised on maleimide-activated microplates (50 μg/mL, binding buffer 0.1 M sodium phosphate, 0.15 M NaCl, 10 mM EDTA, pH 7.2); Flamma 552-Aβ(1–42) 10 μM in deionized water (10% DMSO), 37°C, 2 h; fluorescence 555/580 nm as baseline before YIAD002
# Details: both partners purified
row,Binder,binding result
1,B1,binds
2,B2,binds

# Source: publication PMC9706920, “Aryloxypropanolamine targets amyloid aggregates and reverses Alzheimer-like phenotypes in Alzheimer mouse models” (Alzheimer's Research & Therapy, 2022)
